One substance from patent publication US20030028009A1 can be followed below.

The test addresses integrin αvβ3 expressed on cells (human) (UniProt P06756). Kind of test: cell-based or functional assay.

integrin αvβ3 expressed on cells (human), sequence (P06756 31-1048, chain 1 of 2): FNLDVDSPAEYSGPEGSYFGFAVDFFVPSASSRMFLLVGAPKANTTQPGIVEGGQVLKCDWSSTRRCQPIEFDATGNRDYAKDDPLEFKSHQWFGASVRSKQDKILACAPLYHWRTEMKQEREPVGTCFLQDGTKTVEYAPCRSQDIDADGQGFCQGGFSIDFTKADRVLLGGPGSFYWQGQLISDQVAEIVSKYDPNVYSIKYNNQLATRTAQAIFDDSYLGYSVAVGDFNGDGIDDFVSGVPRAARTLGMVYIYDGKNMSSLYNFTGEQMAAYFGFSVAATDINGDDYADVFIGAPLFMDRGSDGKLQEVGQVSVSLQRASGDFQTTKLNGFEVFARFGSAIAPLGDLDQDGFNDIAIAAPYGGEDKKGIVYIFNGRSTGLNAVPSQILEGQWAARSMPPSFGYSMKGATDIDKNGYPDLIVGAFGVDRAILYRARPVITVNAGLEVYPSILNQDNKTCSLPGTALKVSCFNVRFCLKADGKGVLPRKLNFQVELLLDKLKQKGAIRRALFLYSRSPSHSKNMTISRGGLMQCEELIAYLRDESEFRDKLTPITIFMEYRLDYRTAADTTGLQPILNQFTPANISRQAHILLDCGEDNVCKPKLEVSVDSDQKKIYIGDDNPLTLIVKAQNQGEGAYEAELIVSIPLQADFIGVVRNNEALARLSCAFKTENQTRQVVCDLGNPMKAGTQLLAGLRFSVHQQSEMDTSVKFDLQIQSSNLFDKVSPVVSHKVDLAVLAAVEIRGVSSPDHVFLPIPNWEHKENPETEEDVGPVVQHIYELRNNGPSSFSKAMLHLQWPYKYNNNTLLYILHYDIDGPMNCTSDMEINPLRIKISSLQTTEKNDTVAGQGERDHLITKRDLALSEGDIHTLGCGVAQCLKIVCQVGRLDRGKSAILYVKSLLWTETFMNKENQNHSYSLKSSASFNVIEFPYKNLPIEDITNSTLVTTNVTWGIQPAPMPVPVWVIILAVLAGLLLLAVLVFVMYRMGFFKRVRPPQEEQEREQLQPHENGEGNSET
integrin αvβ3 expressed on cells (human), sequence (P05106 27-788, chain 2 of 2, further chain): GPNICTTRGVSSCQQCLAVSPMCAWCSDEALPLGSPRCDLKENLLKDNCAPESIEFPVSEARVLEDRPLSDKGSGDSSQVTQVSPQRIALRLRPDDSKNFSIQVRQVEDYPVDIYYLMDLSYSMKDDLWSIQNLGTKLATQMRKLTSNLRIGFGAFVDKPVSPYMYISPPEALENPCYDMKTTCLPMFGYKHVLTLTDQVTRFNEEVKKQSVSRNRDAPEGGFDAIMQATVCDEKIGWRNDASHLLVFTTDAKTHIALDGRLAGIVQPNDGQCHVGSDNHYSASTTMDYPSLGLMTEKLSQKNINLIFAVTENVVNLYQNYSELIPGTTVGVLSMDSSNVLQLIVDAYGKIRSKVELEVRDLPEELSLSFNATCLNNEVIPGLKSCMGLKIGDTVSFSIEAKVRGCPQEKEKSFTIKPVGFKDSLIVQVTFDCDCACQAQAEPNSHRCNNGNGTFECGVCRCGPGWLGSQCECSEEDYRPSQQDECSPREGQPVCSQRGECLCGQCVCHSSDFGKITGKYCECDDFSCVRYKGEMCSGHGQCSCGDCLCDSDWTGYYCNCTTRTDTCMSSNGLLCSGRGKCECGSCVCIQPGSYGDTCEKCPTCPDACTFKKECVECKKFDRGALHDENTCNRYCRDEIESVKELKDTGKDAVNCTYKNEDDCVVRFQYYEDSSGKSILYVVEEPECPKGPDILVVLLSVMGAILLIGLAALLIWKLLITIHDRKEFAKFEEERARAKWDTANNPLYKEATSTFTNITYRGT

Substance monoclonal antibody LM609 (murine IgG) displayed an inhibition of vitronectin-induced migration of endothelial cells (transwell) of 60% and an inhibitory concentration for 50% maximal adhesion (M21 cell adhesion to fibrinogen) of 50 ng/mL.
